Data taken from the supplement of paper PMC11316812.
± gives the standard deviation of the averaged measurements.

Legend:
MCF7 = assay: percentage of EdU-negative (G0-arrested) nuclei per well, 72 h; higher = more G0 arrest; conditions: reference: sequence is the full UniProt precursor, the tested protein was the secreted form or ectodomain
hTERT-HMEC = assay: as above; conditions: reference: sequence is the full UniProt precursor, the tested protein was the secreted form or ectodomain
[1] = protein concentration 0.0065 µM
[2] = protein concentration 0.00525 µM
[3] = protein concentration 0.0525 µM
[4] = protein concentration 0.0225 µM
[5] = protein concentration 0.03108 µM
[6] = protein concentration 0.3108 µM
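Note: secreted proteins added to cultured cells, EdU pulse at the end, nuclei found by Hoechst imaging, EdU status from nuclear versus surrounding ring intensity ratio, PBS as neutral control.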

Row | Sequence | percentage of EdU-negative (MCF7; [4]) | percentage of EdU-negative (MCF7; protein concentration 0.225 µM) | percentage of EdU-negative (hTERT-HMEC; [4]) | percentage of EdU-negative (hTERT-HMEC; protein concentration 0.225 µM) | further results
1 | MEAVAVAAAVGVLLLAGAGGAAGDEAREAAAVRALVARLLGPGPAADFSVSVERALAAKPGLDTYSLGGGGAARVRVRGSTGVAAAAGLHRYLRDFCGCHVAWSGSQLRLPRPLPAVPGELTEATPNRYRYYQNVCTQSYSFVWWDWARWEREIDWMALNGINLALAWSGQEAIWQRVYLALGLTQAEINEFFTGPAFLAWGRMGNLHTWDGPLPPSWHIKQLYLQHRVLDQMRSFGMTPVLPAFAGHVPEAVTRVFPQVNVTKMGSWGHFNCSYSCSFLLAPEDPIFPIIGSLFLRELIKEFGTDHIYGADTFNEMQPPSSEPSYLAAATTAVYEAMTAVDTEAVWLLQGWLFQHQPQFWGPAQIRAVLGAVPRGRLLVLDLFAESQPVYTRTASFQGQPFIWCMLHNFGGNHGLFGALEAVNGGPEAARLFPNSTMVGTGMAPEGISQNEVVYSLMAELGWRKDPVPDLAAWVTSFAARRYGVSHPDAGAAWRLLLRSVYNCSGEACRGHNRSPLVRRPSLQMNTSIWYNRSDVFEAWRLLLTSAPSLATSPAFRYDLLDLTRQAVQELVSLYYEEARSAYLSKELASLLRAGGVLAYELLPALDEVLASDSRFLLGSWLEQARAAAVSEAEADFYEQNSRYQLTLWGPEGNILDYANKQLAGLVANYYTPRWRLFLEALVDSVAQGIPFQQHQFDKNVFQLEQAFVLSKQRYPSQPRGDTVDLAKKIFLKYYPRWVAGSW | – | – | – | – | percentage of EdU-negative (MCF7; [1]): 24.9 ± 1.1%; percentage of EdU-negative (MCF7; protein concentration 0.065 µM): 26 ± 2.8%; percentage of EdU-negative (hTERT-HMEC; [1]): 4.39 ± 0.1%; percentage of EdU-negative (hTERT-HMEC; protein concentration 0.065 µM): 5.55 ± 0.91%
2 | MEDLCVANTLFALNLFKHLAKASPTQNLFLSPWSISSTMAMVYMGSRGSTEDQMAKVLQFNEVGANAVTPMTPENFTSCGFMQQIQKGSYPDAILQAQAADKIHSSFRSLSSAINASTGNYLLESVNKLFGEKSASFREEYIRLCQKYYSSEPQAVDFLECAEEARKKINSWVKTQTKGKIPNLLPEGSVDGDTRMVLVNAVYFKGKWKTPFEKKLNGLYPFRVNSAQRTPVQMMYLREKLNIGYIEDLKAQILELPYAGDVSMFLLLPDEIADVSTGLELLESEITYDKLNKWTSKDKMAEDEVEVYIPQFKLEEHYELRSILRSMGMEDAFNKGRANFSGMSERNDLFLSEVFHQAMVDVNEEGTEAAAGTGGVMTGRTGHGGPQFVADHPFLFLIMHKITNCILFFGRFSSP | – | – | – | – | percentage of EdU-negative (MCF7; [2]): 24.7 ± 0.25%; percentage of EdU-negative (MCF7; [3]): 27.383 ± 0.014%; percentage of EdU-negative (hTERT-HMEC; [2]): 5.431 ± 0.036%; percentage of EdU-negative (hTERT-HMEC; [3]): 5.26 ± 1.3%
3 | MEEAILVPCVLGLLLLPILAMLMALCVHCHRLPGSYDSTSSDSLYPRGIQFKRPHTVAPWPPAYPPVTSYPPLSQPDLLPIPRSPQPLGGSHRTPSSRRDSDGANSVASYENEGASGIRGAQAGWGVWGPSWTRLTPVSLPPEPACEDADEDEDDYHNPGYLVVLPDSTPATSTAAPSAPALSTPGIRDSAFSMESIDDYVNVPESGESAEASLDGSREYVNVSQELHPGAAKTEPAALSSQEAEEVEEEGAPDYENLQELN | 25.6 ± 1.2% | 25.8 ± 2.6% | 5.1 ± 0.68% | 5.5816 ± 0.0039% | –
4 | MEEGQYSEIEELPRRRCCRRGTQIVLLGLVTAALWAGLLTLLLLWHWDTTQSLKQLEERAARNVSQVSKNLESHHGDQMAQKSQSTQISQELEELRAEQQRLKSQDLELSWNLNGLQADLSSFKSQELNERNEASDLLERLREEVTKLRMELQVSSGFVCNTCPEKWINFQRKCYYFGKGTKQWVHARYACDDMEGQLVSIHSPEEQDFLTKHASHTGSWIGLRNLDLKGEFIWVDGSHVDYSNWAPGEPTSRSQGEDCVMMRGSGRWNDAFCDRKLGAWVCDRLATCTPPASEGSAESMGPDSRPDPDGRLPTPSAPLHS | – | – | – | – | percentage of EdU-negative (MCF7; protein concentration 0.005 µM): 23.6 ± 0.92%; percentage of EdU-negative (MCF7; protein concentration 0.05 µM): 23.9 ± 0.99%; percentage of EdU-negative (hTERT-HMEC; protein concentration 0.005 µM): 5.26 ± 0.5%; percentage of EdU-negative (hTERT-HMEC; protein concentration 0.05 µM): 5.97 ± 0.12%
5 | MEESVVRPSVFVVDGQTDIPFTRLGRSHRRQSCSVARVGLGLLLLLMGAGLAVQGWFLLQLHWRLGEMVTRLPDGPAGSWEQLIQERRSHEVNPAAHLTGANSSLTGSGGPLLWETQLGLAFLRGLSYHDGALVVTKAGYYYIYSKVQLGGVGCPLGLASTITHGLYKRTPRYPEELELLVSQQSPCGRATSSSRVWWDSSFLGGVVHLEAGEKVVVRVLDERLVRLRDGTRSYFGAFMV | – | – | – | – | percentage of EdU-negative (MCF7; protein concentration 0.012 µM): 23.7 ± 1.9%; percentage of EdU-negative (MCF7; protein concentration 0.12 µM): 25.5 ± 0.62%; percentage of EdU-negative (hTERT-HMEC; protein concentration 0.012 µM): 6.38 ± 0.16%; percentage of EdU-negative (hTERT-HMEC; protein concentration 0.12 µM): 15.2 ± 1.9%
6 | MEFLWAPLLGLCCSLAAADRHTVFWNSSNPKFRNEDYTIHVQLNDYVDIICPHYEDHSVADAAMEQYILYLVEHEEYQLCQPQSKDQVRWQCNRPSAKHGPEKLSEKFQRFTPFTLGKEFKEGHSYYYISKPIHQHEDRCLRLKVTVSGKITHSPQAHDNPQEKRLAADDPEVRVLHSIGHSAAPRLFPLAWTVLLLPLLLLQTP | – | – | – | – | percentage of EdU-negative (MCF7; [5]): 24.521 ± 0.0085%; percentage of EdU-negative (MCF7; [6]): 24.81 ± 0.061%; percentage of EdU-negative (hTERT-HMEC; [5]): 6.23 ± 0.24%; percentage of EdU-negative (hTERT-HMEC; [6]): 7.2445 ± 0.004%
7 | MEGAGPRGAGPARRRGAGGPPSPLLPSLLLLLLLWMLPDTVAPQELNPRGRNVCRAPGSQVPTCCAGWRQQGDECGIAVCEGNSTCSENEVCVRPGECRCRHGYFGANCDTKCPRQFWGPDCKELCSCHPHGQCEDVTGQCTCHARRWGARCEHACQCQHGTCHPRSGACRCEPGWWGAQCASACYCSATSRCDPQTGACLCHAGWWGRSCNNQCACNSSPCEQQSGRCQCRERTFGARCDRYCQCFRGRCHPVDGTCACEPGYRGKYCREPCPAGFYGLGCRRRCGQCKGQQPCTVAEGRCLTCEPGWNGTKCDQPCATGFYGEGCSHRCPPCRDGHACNHVTGKCTRCNAGWIGDRCETKCSNGTYGEDCAFVCADCGSGHCDFQSGRCLCSPGVHGPHCNVTCPPGLHGADCAQACSCHEDTCDPVTGACHLETNQRKGVMGAGALLVLLVCLLLSLLGCCCACRGKDPTRRPRPRRELSLGRKKAPHRLCGRFSRISMKLPRIPLRRQKLPKVVVAHHDLDNTLNCSFLEPPSGLEQPSPSWSSRASFSSFDTTDEGPVYCVPHEEAPAESRDPEVPTVPAEAPAPSPVPLTTPASAEEAIPLPASSDSERSASSVEGPGGALYARVARREARPARARGEIGGLSLSPSPERRKPPPPDPATKPKVSWIHGKHSAAAAGRAPSPPPPGSEAAPSPSKRKRTPSDKSAHTVEHGSPRTRDPTPRPPGLPEEATALAAPSPPRARARGRGPGLLEPTDAGGPPRSAPEAASMLAAELRGKTRSLGRAEVALGAQGPREKPAPPQKAKRSVPPASPARAPPATETPGPEKAATDLPAPETPRKKTPIQKPPRKKSREAAGELGRAGAPTL [Q96GP6] | 25.7 ± 1.2% | 36.9 ± 0.76% | 3.85 ± 0.62% | 18.5 ± 6.1% | –
8 | MEGGDQSEEEPRERSQAGGMGTLWSQESTPEERLPVEGSRPWAVARRVLTAILILGLLLCFSVLLFYNFQNCGPRPCETSVCLDLRDHYLASGNTSVAPCTDFFSFACGRAKETNNSFQELATKNKNRLRRILEVQNSWHPGSGEEKAFQFYNSCMDTLAIEAAGTGPLRQVIEELGGWRISGKWTSLNFNRTLRLLMSQYGHFPFFRAYLGPHPASPHTPVIQIDQPEFDVPLKQDQEQKIYAQIFREYLTYLNQLGTLLGGDPSKVQEHSSLSISITSRLFQFLRPLEQRRAQGKLFQMVTIDQLKEMAPAIDWLSCLQATFTPMSLSPSQSLVVHDVEYLKNMSQLVEEMLLKQRDFLQSHMILGLVVTLSPALDSQFQEARRKLSQKLRELTEQPPMPARPRWMKCVEETGTFFEPTLAALFVREAFGPSTRSAAMKLFTAIRDALITRLRNLPWMNEETQNMAQDKVAQLQVEMGASEWALKPELARQEYNDIQLGSSFLQSVLSCVRSLRARIVQSFLQPHPQHRWKVSPWDVNAYYSVSDHVVVFPAGLLQPPFFHPGYPRAVNFGAAGSIMAHELLHIFYQLLLPGGCLACDNHALQEAHLCLKRHYAAFPLPSRTSFNDSLTFLENAADVGGLAIALQAYSKRLLRHHGETVLPSLDLSPQQIFFRSYAQVMCRKPSPQDSHDTHSPPHLRVHGPLSSTPAFARYFRCARGALLNPSSRCQLW | 26.89 ± 0.16% | 27.1 ± 3.5% | 4.88 ± 0.16% | 6.43 ± 0.18% | –
9 | MEIPVPVQPSWLRRASAPLPGLSAPGRLFDQRFGEGLLEAELAALCPTTLAPYYLRAPSVALPVAQVPTDPGHFSVLLDVKHFSPEEIAVKVVGEHVEVHARHEERPDEHGFVAREFHRRYRLPPGVDPAAVTSALSPEGVLSIQAAPASAQAPPPAAAK | 27 ± 0.81% | 25.6 ± 1.1% | 4.93 ± 0.29% | 5.53 ± 0.95% | –
10 | MEIVWEVLFLLQANFIVCISAQQNSPKIHEGWWAYKEVVQGSFVPVPSFWGLVNSAWNLCSVGKRQSPVNIETSHMIFDPFLTPLRINTGGRKVSGTMYNTGRHVSLRLDKEHLVNISGGPMTYSHRLEEIRLHFGSEDSQGSEHLLNGQAFSGEVQLIHYNHELYTNVTEAAKSPNGLVVVSIFIKVSDSSNPFLNRMLNRDTITRITYKNDAYLLQGLNIEELYPETSSFITYDGSMTIPPCYETASWIIMNKPVYITRMQMHSLRLLSQNQPSQIFLSMSDNFRPVQPLNNRCIRTNINFSLQGKDCPNNRAQKLQYRVNEWLLK [Q9NS85] | 25.5 ± 2.5% | 27.9 ± 0.69% | 5.049 ± 0.027% | 8.51 ± 1.1% | –
